Results: US20260137799A1, “ANTI-MUC1* ANTIBODY DRUG COMPLEXES AND USES THEREOF” (Minerva Biotechnologies Corporation, priority 2023, published 2026)

Columns and labels:
[1] = molecular target: MUC1*45 (UniProt P15941 1110-1255); assay: cell-based or functional assay
[2] = test system: T47D; assay: xCELLigence impedance cytotoxicity, T47D; assay type: cell-based, human; details: Example 9 (FIGS. 35-36); average over batches for DXd ADCs; read-out: IC50 for killing of breast cancer T47D-wt cells
Experimental: (§1) An xCELLigence RTCA MP Instrument (Agilent) was used to assess real-time killing of target cancer cells). In the xCELLigence system, target cancer cells, which are adherent, are plated onto electrode array 96-well plates. Adherent cells insulate the electrode and increase the impedance. The number of adherent cancer cells is directly proportional to impedance. […] Therefore, increasing impedance reflects the growth of the cancer cells and decreasing impedance reflects the killing of the cancer cells.
(§2) Target Cancer cells (Table 9) were seeded onto a multi-electrode well plate at a density of 5000 cells/well (100 μL of a 50,000 cells/mL stock) and incubated for 24 hr in a 37° C./5% CO2 incubator. ADCs were prepared as a 2× solution in corresponding growth media and 100 μL of each concentration was added to target cells. As a positive control (100% cell killing) cells were treated with either 1% triton or 1 μM Taxol instead of ADC. After 40-120 hours incubation in a 37° C./5% CO2 incubator cell killing was assessed. In this assay, impedance is measured in real-time. When the adherent cancer cells are killed and come off the electrode surface, impedance (insulation) decreases.

[3] = test system: NCI-H1975; assay: xCELLigence impedance cytotoxicity, NCI-H1975; assay type: cell-based, human; details: Example 9 (FIGS. 35-36); read-out: IC50 for killing of H1975-wt cells
Experimental: as §1, §2

[4] = test system: CFPAC1-wt pancreatic cancer cell line; assay: xCELLigence impedance cytotoxicity, CFPAC1; assay type: cell-based, human; details: Example 9 (FIGS. 35-36); read-out: IC50, CFPAC1-wt pancreatic cancer cells
Experimental: as §1, §2
(§3) To directly compare the C2 and 3C2B1 anti-MUC1* antibodies as ADC targeting domains, a panel of MUC1* positive cancer cell lines representing different cancer types were treated with C2-deruxtecan versus 3C2B1-deruxtecan (FIG. 35) or C2-MC-VA-PAB-exatecan versus 3C2B1-MC-VA-PAB-exatecan (FIG. 36). In some cases, the cancer cells were engineered to express high levels of MUC1*45.

[5] = test system: H2110-wt lung cancer cell line; assay: xCELLigence impedance cytotoxicity, H2110; assay type: cell-based, human; details: Example 9 (FIGS. 35-36); read-out: IC50, lung cancer H2110-wt cells
Experimental: as §1, §2, §3

[6] = Toxicity in animal studies; assay type: in vivo; details: each antibody incorporated into several ADC formats
Description: Exatecans and deruxtecans can also have bystander effects. […] It is not completely clear whether these side effects are due to the payload or to the HER2 target, which is also expressed on normal lung and normal heart. The first two patients treated with a HER2 targeting CAR T cell product died shortly after the infusion. […] More recently, yet another patient died after being treated with a different HER2-targeting ADC. […] 32CB1, C2 and 20A10 unexpectedly have an extremely high degree of cancer specificity and elicited no toxicities in animal studies, where each antibody was incorporated into several ADC formats.

[7] = test system: T47D-MUC1*; assay: PrestoBlue live/dead cell assay, T47D-MUC1*; assay type: cell-based, human; details: Presto Blue; 72-120 hour incubation
Experimental: (§4) Another method of measuring the killing activity of ADCs against target cancer cells is to use the PrestoBlue live/dead cell assay (ThermoFisher). Target cancer cells were seeded in a black-walled, clear-bottom 96-well tissue culture plate at a density of 5000 cells/well (100 μL of a 50,000 cells/mL stock) and incubated overnight in a 37° C./5% CO2 incubator. ADCs were prepared as a 2× solution in corresponding cancer cell growth media and 100 μL of each concentration was added to target cancer cells. As a positive control (100% killing) cancer cells were treated with 1 μM Taxol instead of ADC. After 72 hour-120 hour incubation in a 37° C./5% CO2 incubator, cell viability was measure by fluorescence using the PrestoBlue HS assay (ThermoFisher). Briefly, after the incubation period, 20 μL of PrestoBlue HS solution was added. Fluorescence (Ex 560 nm/Em 590 nm) was recorded after 30-90 min. incubation using a Tecan plate reader. Percentage viability was determined by PrestoBlue HS staining and normalized to 1 μM taxol treated cells.
(§5) The normalized fluorescence values were imported into the graph program, Sigma Plot, data plotted as ADC concentration versus normalized fluorescence signal and curve fitted using a four-parameter Hill equation: f=y0+a*x^b/(c^b+x^b) to calculate IC50 values. IC50 values for the ADCs were generally consistent between the xCELLigence and Presto Blue assays.

[8] = test system: HPAFII; assay: PrestoBlue live/dead cell assay, HPAFII; assay type: cell-based, human; details: Presto Blue; 72-120 hour incubation
Experimental: as §4, §5

[9] = test system: HPAFII-MUC1*; assay: PrestoBlue live/dead cell assay, HPAFII-MUC1*; assay type: cell-based, human; details: Presto Blue; 72-120 hour incubation
Experimental: as §4, §5

[10] = test system: breast cancer, pancreatic cancer, and lung cancer cell lines; assay: Cytotoxicity of ADCs with additional linkers and toxins (FIGS. 30-31); assay type: cell-based; details: breast cancer and pancreatic cancer cell
Experimental: FIG. 30 is a table showing cytotoxicity of the indicated MUC1* ADCs against indicated cancer cells. IC50 values were determined from xCELLigence data. FIG. 30 discloses “GGFG” as SEQ ID NO: 160, “GGGG” as SEQ ID NO: 161, “GGVA” as SEQ ID NO: 162, “GGVG” as SEQ ID NO: 163.
FIG. 31 is a table showing cytotoxicity of the indicated MUC1* ADCs against indicated cancer cells. IC50 values were determined from PrestoBlue data.
An anti-MUC1* antibody was conjugated to several toxins via a number of different linkers (compounds VIII-XXII).

[11] = molecular target: T1, PSMGFR C-10 peptide; assay: ELISA on PSMGFR C-10 peptide; Table 4 grade
T1 peptide: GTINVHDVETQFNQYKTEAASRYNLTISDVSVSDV

B1: 3C2B1-MC-VA-PAB-exatecan (antibody, V domains shown)
VH: EVMLVESGGGLVKPGGSLKLSCAASGITFSTYTMSWVRQTPEKRLEWVATISTGGDKTYYSDSVKGRFTISRDNAKNNLYLQMSSLRSEDTALYYCARGTTAMYYYAMDYWGQGTSVTVSS
VL: DIVLTQSPASLAVSLGQRATISCRASKSISTSDYNYIHWYQQKPGQPPKLLIYLASNLESGVPARFSGSGSGTDFTLNIHPVEEEDAATYYCQHSRELPLTFGAGTKLELK
modifications: MC-VA-PAB-exatecan on reduced cysteine thiols of the antibody, sites not stated; MC-VA-PAB-exatecan on reduced cysteine thiols of the antibody, sites not stated; DAR 5.2
Q: Which “IC50, killing of H1975 cells engineered to express MUC1*45 (xCELLigence)” value [1] does the source give for B1 here?
A: Its value is 141 nM.

Q: What about the “IC50, killing of T47D cells engineered to express more MUC1*45 (xCELLigence)” value [1] of the same molecule?
A: The value was 31 nM.

Q: And the IC50 [2]?
A: The IC50 was 77 nM.

Q: What about the IC50 [3] of the same molecule?
A: Its IC50 is 189 nM.

Q: And the IC50 [4]?
A: The IC50 was 40 nM.

Q: What about the IC50 [5] of the same molecule?
A: The IC50 was 113 nM.

B2: 20A10: anti-MUC1* monoclonal antibody, IgG2b isotype (antibody)
VH: EVMLVESGGGLVKPGGSLKLSCAASGFTFSTYAMSWIRQTPEKRLEWVASIGRAGSTYYSDSVKGRFTISRDNVRNILYLQMSSLRSEDTAMYYCARGPIYNDYDEFAYWGQGTLVTVSAAKTTPPSVYPLAPGCGDTTGSSVTLGCLVKGYFPESVTVTWNSGSLSSSVHTFPALLQSGLYTMSSSVTVPSSTWPSQTVTCSVAHPASSTTVDKKLEPSGPISTINPCPPCKECHKCPAPNLEGGPSVFIFPPNIKDVLMISLTPKVTCVVVDVSEDDPDVRISWFVNNVEVHTAQTQTHREDYNSTIRVVSALPIQHQDWMSGKEFKCKVNNKDLPSPIERTISKIKGLVRAPQVYILPPPAEQLSRKDVSLTCLVVGFNPGDISVEWTSNGHTEENYKDTAPVLDSDGSYFIYSKLDIKTSKWEKTDSFSCNVRHEGLKNYYLKKTISRSPGK
VL: NIMMTQSPSSLAVSAGEKVTMSCKSSQSVLYSSNQKNYLAWYQQKPGQSPKLLIYWASTRESGVPDRFTGSGSGTDFTLTISSVQAEDLAVYYCHQYLSSLTFGAGTKLELKADAAPTVSIFPPSSEQLTSGGASVVCFLNNFYPKDINVKWKIDGSERQNGVLNSWTDQDSKDSTYSMSSTLTLTKDEYERHNSYTCEATHKTSTSPIVKSFNRNEC
Q: With B2 as the molecule, how does the “toxicities in animal studies” value [6] read?
A: Its value is “no toxicities”.

B3: C2-deruxtecan (antibody, mouse IgG1, kappa)
VH: EVQLEESGGGLVKPGGSLKLSCAASGFTFSGYAMSWVRQTPEKRLEWVATISSGGTYIYYPDSVKGRFTISRDNAKNTLYLQMSSLRSEDTAMYYCARLGGDNYYEYFDVWGAGTTVTVSSAKTTPPSVYAKTTPPSVYPLAPGSAAQTNSMVTLGCLVKGYFPEPVTVTWNSGSLSSGVHTFPAVLQSDLYTLSSSVTVPSSTWPSETVTCNVAHPASSTKVDKKIVPRDCGCKPCICTVPEVSSVFIFPPKPKDVLTITLTPKVTCVVVDISKDDPEVQFSWFVDDVEVHTAQTQPREEQFNSTFRSVSELPIMHQDWLNGKEFKCRVNSAAFPAPIEKTISKTKGRPKAPQVYTIPPPKEQMAKDKVSLTCMITDFFPEDITVEWQWNGQPAENYKNTQPIMDTDGSYFVYSKLNVQKSNWEAGNTFTCSVLHEGLHNHHTEKSLSHSPGK
VL: DIVITQSTASLGVSLGQRATISCRASKSVSTSGYSYMHWYQQRPGQPPKLLIYLASNLESGVPARFSGSGSGTDFTLNIHPVEEEDAATYYCQHSRELPFTFGGGTKLEIKRADAAPTVSADAAPTVSIFPPSSEQLTSGGASVVCFLNNFYPKDINVKWKIDGSERQNGVLNSWTDQDSKDSTYSMSSTLTLTKDEYERHNSYTCEATHKTSTSPIVKSFNRNEC
modifications: deruxtecan (MC-GGFG-AM-DXd) on reduced cysteine thiols of the antibody, sites not stated; deruxtecan (MC-GGFG-AM-DXd) on reduced cysteine thiols of the antibody, sites not stated; average DAR 7.7
Q: With B3 as the molecule, how does the “IC50, killing of H1975 lung cancer cells engineered to express MUC1*45 (xCELLigence)” value [1] read?
A: The value was 54 nM.

Q: What about the “IC50, killing of T47D breast cancer cells engineered to express MUC1*45 (xCELLigence)” value [1] of the same molecule?
A: The value was 2 nM.

B4: C2 MC-VC-PAB MMAF (conjugate, listed as Mus sp.)
heavy: B3 VH
light: B3 VL
modifications: MC-VC-PAB-MMAF
notes: ADC: antibody C2 conjugated via MC-VC-PAB linker to MMAF
Q: With B4 as the molecule, how does the IC50 [7] read?
A: The IC50 was 1.3 nM.

Q: What about the IC50 [8] of the same molecule?
A: Its IC50 is 100 nM.

Q: And the IC50 [9]?
A: The IC50 was 90 nM.

B5: C2 MC-VA-AM DXd (conjugate, listed as Mus sp.)
heavy: B3 VH
light: B3 VL
modifications: conjugated MC-VA-AM DXd linker-toxin
Q: For B5, which “IC50 compared to deruxtecan ADC” value [10] is on record?
A: The value was “three-fold lower”.

B6: anti-MUC1* antibody 20A10 (antibody, IgG2b, V domains shown)
VH: EVMLVESGGGLVKPGGSLKLSCAASGFTFSTYAMSWIRQTPEKRLEWVASIGRAGSTYYSDSVKGRFTISRDNVRNILYLQMSSLRSEDTAMYYCARGPIYNDYDEFAYWGQGTLVTVSA
VL: NIMMTQSPSSLAVSAGEKVTMSCKSSQSVLYSSNQKNYLAWYQQKPGQSPKLLIYWASTRESGVPDRFTGSGSGTDFTLTISSVQAEDLAVYYCHQYLSSLTFGAGTKLELKA
notes: Humanised form is m25
Q: Does B6 bind [11]?
A: Result: no binding
